Source: patent US20210253718A1, “FRIZZLED5 PROTEIN-BINDING AGENTS” (Modmab Therapeutics Corporation, priority 2016, published 2021)

T1: FZD8 CRD (Homo sapiens, UniProt Q9H461)
T1 construct: K31-D155; GPI anchor signal (C); expressed in transfected cells; host or cells: CHO cells, lentiviral pLenti-puro
T1 sequence (Q9H461 31-155): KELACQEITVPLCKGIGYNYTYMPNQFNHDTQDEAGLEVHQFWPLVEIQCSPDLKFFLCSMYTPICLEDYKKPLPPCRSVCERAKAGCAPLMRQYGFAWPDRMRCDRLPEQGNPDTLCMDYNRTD

T2: FZD5 CRD (Homo sapiens, UniProt Q13467)
T2 construct: K29-T156; GPI anchor signal (C); expressed in transfected cells; host or cells: CHO cells, lentiviral pLenti-puro
T2 sequence (Q13467 29-156): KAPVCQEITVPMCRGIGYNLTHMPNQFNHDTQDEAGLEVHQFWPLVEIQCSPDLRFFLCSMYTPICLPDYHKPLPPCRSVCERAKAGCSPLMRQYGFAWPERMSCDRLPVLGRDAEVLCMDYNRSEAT

B1: Fab-2915: anti-FZD5 Fab with antibody variable region Fv-2915; CDR SEQ ID NOs: 35, 36, 54, 93, 130, 166 (antibody, V domains shown)
VH: EVQLVESGGGLVQPGGSLRLSCAASGFNIYYYSMHWVRQAPGKGLEWVASIYSSYGYTSYADSVKGRFTISADTSKNTAYLQMNSLRAEDTAVYYCARGYHYYPYYSGLDYWGQGTLVTVSS
VL: DIQMTQSPSSLSASVGDRVTITCRASQSVSSAVAWYQQKPGKAPKLLIYSASSLYSGVPSRFSGSRSGTDFTLTISSLQPEDFATYYCQQAYYHSLITFGQGTKVEIK
B2: Fab-2907: anti-FZD5 Fab with antibody variable region Fv-2907; CDR SEQ ID NOs: 35, 36, 46, 85, 122, 159 (antibody, V domains shown)
VH: EVQLVESGGGLVQPGGSLRLSCAASGFNIYSSYMHWVRQAPGKGLEWVASISSYSGSTYYADSVKGRFTISADTSKNTAYLQMNSLRAEDTAVYYCARSSWGAYIVSYGFDYWGQGTLVTVSS
VL: DIQMTQSPSSLSASVGDRVTITCRASQSVSSAVAWYQQKPGKAPKLLIYSASSLYSGVPSRFSGSRSGTDFTLTISSLQPEDFATYYCQQVGYWWGLITFGQGTKVEIK

Tests used:
Assay in all cases: Flow cytometry of anti-FZD5 Fab binding to CHO cells overexpressing Frizzled CRD
[1] = biological target: T1, FZD8 CRD
How it was run: (§1)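 CHO lines each expressing a different human Frizzled CRD, myc-tagged and GPI-anchored at the surface, stained with 200 nM Fab, then Alexa Fluor 488 F(ab′)2 secondary. Dead cells excluded by viability dye; anti-c-Myc staining served as expression control. Binding read by flow cytometry.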

[2] = biological target: T2, FZD5 CRD
How it was run: as §1

[3] = biological target: T3, FZD7 CRD (Homo sapiens, UniProt O75084)
T3 construct: D45-S169; GPI anchor signal (C); expressed in transfected cells; host or cells: CHO cells, lentiviral pLenti-puro
How it was run: as §1

Molecule | Median fluorescence, Frizzled CRD overexpressed on CHO cells: FZD8 [1] | Median fluorescence, Frizzled CRD overexpressed on CHO cells: FZD5 [2] | Median fluorescence, Frizzled CRD overexpressed on CHO cells: FZD7 [3]
B1 | 10.00 | 27.63 | –
B2 | 11.76 | 32.78 | 2.62
